From publication PMC11310195
Values joined by “and” are separate entries in the source; they are usually repeats but may differ in a detail not shown here. Identical values can stand only once. Values belong to the substance of their own block, whether it stands above or below them.

Assays:
[1] = target: fluorescein-labelled Pdcd4 N-terminal domain (residues 1-156) (human) (UniProt Q53EL6); test: fluorescence polarisation; fluorescence anisotropy binding assay: 20 nM FL-Pdcd4-NTD, 40S titrated, with or without eIFs (1 uM eIFs 1, 1A, 5, 550 nM eIF2-TC and eIF3); 20 mM Tris-acetate pH 7.5, 70 mM KCl, 2 mM MgCl2, 0.1 mM spermidine, 1 mM DTT, 10% glycerol, 0.1 mg/ml BSA, 0.5 mM ATP-Mg; 37 C 10 min, then over 20 min at room temperature; fraction bound fitted with a quadratic equation
[2] = target: 40S small ribosomal subunit (salt-washed) (human) (UniProt P23396); test: fluorescence polarisation; fluorescence anisotropy competition assay in solution: 20 nM FL-Pdcd4-NTD + 50 nM 40S competed off by 0-1000 nM unlabeled Pdcd4 or its variants; Kd of the labeled NTD set to 5 nM; same buffer as the native gel assay; 10 min at 37 C, then over 20 min at room temperature
[3] = target: 40S small ribosomal subunit (salt-washed) (human) (UniProt P23396); test: fluorescence polarisation; anisotropy competition: 20 nM FL-Pdcd4-NTD + 50 nM 40S competed off by unlabeled Pdcd4 or its variants; 37 °C 10 min, then over 20 min at room temperature; buffer of the native gel assay
[4] = target: 40S small ribosomal subunit (salt-washed) (human) (UniProt P23396); test: fluorescence polarisation; anisotropy binding: 20 nM FL-Pdcd4-NTD with various amounts of 40S in the presence of saturating eIF1 and eIF1A
[5] = target: 43S pre-initiation complex (40S + eIFs 1, 1A, 5, 3j, eIF2-TC and eIF3) (human) (UniProt P23396); test: fluorescence polarisation; anisotropy binding: 20 nM FL-Pdcd4-NTD with various amounts of 40S, in the absence or presence of 43S components (1 μM eIFs 1, 1A, 5, 550 nM eIF2-TC and eIF3); buffer of the native gel assay
[6] = target: 43S pre-initiation complex (40S + eIFs 1, 1A, 5, 3j, eIF2-TC and eIF3) (human) (UniProt P23396); test: native gel or EMSA; 100 nM fluorescein-labeled Pdcd4 with 250 nM 40S, 43S or 48S; 37 °C 10 min; 20 mM Tris-acetate pH 7.5, 70 mM KCl, 2 mM MgCl2, 0.1 mM spermidine, 1 mM DTT, 10% glycerol, 0.1 mg/ml BSA, 0.5 mM ATP-Mg; 1% agarose gel in THEM buffer, 4 °C

Substance: Pdcd4 V123A/W124A (from UniProt Q53EL6 1-469) (natural protein)
Ki [2]: 864 nM and 791 nM and 828 nM

Substance: Pdcd4 K114A/K115A (from UniProt Q53EL6 1-469) (natural protein)
Ki [2]: 1600 nM and 1380 nM and 1490 nM

Substance: Pdcd4 (programmed cell death 4), wild type, residues 1-469 (from UniProt Q53EL6 1-469) (natural protein)
Ki [3]: 23 nM

Substance: fluorescein-labeled Pdcd4-NTD (FL-Pdcd4-NTD, residues 1-156) (from UniProt Q53EL6 1-156) (domain or fragment)
fold reduction in affinity (against the 40S alone) [4]: > 10 fold
fold reduction in affinity (against the 40S alone) [5]: > 100 fold
percent binding compared to the 40S lane [6]: < 20%

Substance: human 40S small ribosomal subunit (from UniProt P23396 1-243) (complex)
Kd [1]: 5 nM

Substance: 40S subunit with saturating eIF1 and eIF1A (from UniProt P23396 1-243; P41567 1-113; P47813 1-144) (complex)
Kd [1]: 71 nM

Substance: wild-type Pdcd4 (residues 1-469), unlabeled (from UniProt Q53EL6 1-469) (natural protein)
Ki [2]: 24.7 nM and 21 nM and 23.3 nM

The remaining lines, values ahead:

Kd [1]: 3000 nM
Substance: 43S pre-initiation complex (40S with eIF1, eIF1A, eIF5, eIF2 ternary complex and eIF3) (from UniProt P23396 1-243; P41567 1-113; P47813 1-144; P55010 1-431; P55884 158-814; O75821 1-320; Q13347 1-325; O75822 1-258)

Ki [3]: 21 nM
Ki [2]: 21.2 nM and 20.3 nM and 20.1 nM
Substance: Pdcd4-NTD (residues 1-156), unlabeled (from UniProt Q53EL6 1-156) (domain or fragment)

percent binding compared to the 40S lane [6]: < 20%
Substance: fluorescently modified recombinant Pdcd4 (FL-Pdcd4), full length (from UniProt Q53EL6 1-469) (natural protein)
